Molecular target: SARS-CoV-2 RBD (Wuhan-1) RBD-FC fusion protein (SARS-CoV-2, UniProt P0DTC2)
Assay: SPR
Details: both partners purified

B1: CB6 (antibody, V domains shown)
VH: EVQLVESGGGLVQPGGSLRLSCAASGFTVSSNYMSWVRQAPGKGLEWVSVIYSGGSTFYADSVKGRFTISRDNSMNTLFLQMNSLRAEDTAVYYCARVLPMYGDYLDYWGQGTLVTVSS
VL: not shown
notes: source: produced and purified as previously described (29)
- binding result: binds

B2: RGN10933 (antibody, V domains shown)
VH: QVQLVESGGGLVKPGGSLRLSCAASGFTFSDYYMSWIRQAPGKGLEWVSYITYSGSTIYYADSVKGRFTISRDNAKSSLYLQMNSLRAEDTAVYYCARDRGTTMVPFDYWGQGTLVTVSS
VL: DIQMTQSPSSLSASVGDRVTITCQASQDITNYLNWYQQKPGKAPKLLIYAASNLETGVPSRFSGSGSGTDFTFTISGLQPEDIATYYCQQYDNLPLTFGGGTKVEIK
- binding result: binds

B3: RGN10987 (antibody, V domains shown)
VH: QVQLVESGGGVVQPGRSLRLSCAASGFTFSNYAMYWVRQAPGKGLEWVAVISYDGSNKYYADSVKGRFTISRDNSKNTLYLQMNSLRTEDTAVYYCASGSDYGDYLLVYWGQGTLVTVSS
VL: QSALTQPASVSGSPGQSITISCTGTSSDVGGYNYVSWYQQHPGKAPKLMIYDVSKRPSGVSNRFSGSKSGNTASLTISGLQSEDEADYYCNSLTSISTWVFGGGTKLTVL
- binding result: binds
